Laboratory results from patent US6866854 (TRUSTEES OF COLUMBIA UNIVERSITY IN THE CITY OF NEW YORK, dated 2005).

Biological target: T1, LANA2 fused to GAL4-AD (plasmid pGAD424) (Kaposi's sarcoma-associated herpesvirus …, UniProt F5HIC6 1-566)
T1 sequence: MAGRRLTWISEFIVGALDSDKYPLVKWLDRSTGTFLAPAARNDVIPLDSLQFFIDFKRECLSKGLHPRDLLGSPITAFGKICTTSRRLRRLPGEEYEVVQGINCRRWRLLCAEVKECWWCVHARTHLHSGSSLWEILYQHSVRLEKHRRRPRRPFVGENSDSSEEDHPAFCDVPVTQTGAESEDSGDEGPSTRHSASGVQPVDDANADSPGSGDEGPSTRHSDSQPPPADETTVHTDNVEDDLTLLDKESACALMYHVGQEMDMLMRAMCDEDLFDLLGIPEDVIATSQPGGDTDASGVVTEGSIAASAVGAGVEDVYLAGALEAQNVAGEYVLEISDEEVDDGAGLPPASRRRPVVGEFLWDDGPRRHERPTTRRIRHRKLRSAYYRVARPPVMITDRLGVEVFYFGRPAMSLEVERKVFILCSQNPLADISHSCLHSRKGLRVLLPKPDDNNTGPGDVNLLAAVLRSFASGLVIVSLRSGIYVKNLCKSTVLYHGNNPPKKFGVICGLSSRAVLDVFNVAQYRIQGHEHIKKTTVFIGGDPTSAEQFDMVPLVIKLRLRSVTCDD
Assay: yeast two-hybrid assay, strain Y-190, b-galactosidase

B1: murine p53 fused to GAL4 DNA-binding domain (DNA-BD/murine p53 fusion protein PVA3) (other)
chain: MKLLSSIEQACDICRLKKLKCSKEKPKCAKCLKNNWECRYSPKTKRSPLTRAHLTEVESRLERLEQLFLLIFPREDLDMILKMDSLQDIKALLTGLFVQDNVNKDAVTDRLASVETDMPLTLRQHRISATSSSEESSNKGQRQLTVSPVTETPGPVAPAPATPWPLSSFVPSQKTYQGNYGFHLGFLQSGTAKSVMCTYSPPLNKLFCQLAKTCPVQLWVSATPPAGSRVRAMAIYKKSQHMTEVVRRCPHHERCSDGDGLAPPQHLIRVEGNLYPEYLEDRQTFRHSVVVPYEPPEAGSEYTTIHYKYMCNSSCMGGMNRRPILTIITLEDSSGNLLGRDSFEVRVCACPGRDRRTEEENFRKKEVLCPELPPGSAKRALPTCTSASPPQKKKPLDGEYFTLKIRGRKRFEMFRELNEALELKDAHATEESGDSRAHSSYLKTKKGQSTSRHKKTMVKKVGPDSD
notes: also called p53 into the Gal4-BD cassette
B1: no binding.
